Experimental data from patent publication US5223256A, “Thrombolytically active non-glycosylated protein” (Boehringer Mannheim GmbH, priority 1989, dated 1993).

Assays:
[1] = Plasma t-PA activity at the end of infusion in the rabbit jugular vein model; assay type: in vivo; conditions: end of 4 h infusion, mean ± SEM
Description: (§1) The jugular vein model established by D. Collen et al., (J. Clin. Invest. 71, 368, 1983) was used to investigate the thrombolytic efficacy. K2P and Actilyse® were each examined at three dose levels. The fibrinolytic agents were infused for 4 hours and afterwards the rate of thrombolysis was determined (Table 2, FIG. 5).
(§2) Thrombolysis, level of t-PA plasma activity (at the end of a 4 h

[2] = Pharmacokinetics in rabbits (t-PA activity in plasma); assay type: in vivo, New-Zealand white rabbits; conditions: 200000 IU/kg, i.v. infusion 30 min
Description: The pharmacokinetic properties of K2P were compared to those of Actilyse® in New-Zealand white rabbits. Both fibrinolytic agents were infused for 30 minutes at a dose of 200,000 IU/kg body weight. Plasma samples were taken at defined times before, during and after the infusion. The t-PA activity was measured with a spectrophotometric test according to J. H. Verheijen et al., (Thromb. Haemostas. 48, 266, 1982), modified according to H. Lill (Z. ges. Inn. Med. 42, 478, 1987).
A calculation programme for non-linear regression modified according to H. Y. Huang (Aero-Astronautics-Report 64, Rice University, 1-30, 1969) Was used to calculate the pharmacokinetic parameters. The parameters were calculated individually using a bi-exponential pharmacokinetic model.

[3] = tested on: coronary artery thrombosis; assay: Dog model for coronary artery thrombosis (thrombolysis); assay type: in vivo; conditions: for Wet weight of the residual thrombus: 2 h; for Wet weight of the residual thrombus / Reperfusion time: mean ± SEM
Text: An experimental model for acute myocardial infarction in animals was chosen as an example in order to examine the thrombolytic effect of K2P from E. coli on arterial thrombi. The dog was chosen as the animal species. The method for the formation of a coronary artery thrombus was a modification of the technique of Romson et al., (Thromb. Res. 17, 841, 1980). In the open thorax of anaesthetized dogs which were artificially respirated, the intimal surface of the ramus branch of the left circumflex coronary artery (LCX) was electrically stimulated (150 μA) and by this means a thrombus was produced. Previously a screw was applied distal to the thrombosis in order to eliminate a reactive hyperaemia by the experimental stenosis. Proximal to the coronary thrombosis the LCX was equipped with an electromagnetic flow measuring head in order to be able to measure the reperfusion.
(§3) In a study to determine the dosage, BM 06.022 with the eukaryotic t-PA (Alteplase, Actilyse®, Dr. Karl Thomae GmbH, Biberach, FRG) in four different doses and with placebo were injected as an initial single intravenous bolus over 1 min into heparinized dogs; 6 animals were injected with each dose. Plasma samples were taken before and at defined times after the injection in order to determine the plasma concentration of the t-PA activity and of fibrinogen, plasminogen and α2 -antiplasmin as well as the number of thrombocytes in whole blood. Fibrinogen was measured coagulometrically according to Clauss (Acta haemat. 17, 237, 1957), plasminogen and α2-antiplasmin were measured spectrophotometrically as described by Collen et al., (J. Clin. Invest. 71, 368, 1983). In addition, the "Simplate bleeding time" was measured on the hind leg of the dogs using a lancet (Simplate® I, Organon Teknika, Eppelheim, FRG) during a venostasis of 40 mm Hg (J. Surg. Res. 27, 244, 1979). The statistical comparison of the measured values after injection with the control value before injection was carried out with the Wilcoxon Test for pair differences.
In order to describe the thrombolytic effect, the number of reperfused animals per dose-group (=reperfusion rate) as well as the time up to the reperfusion (=reperfusion time) was quoted. In addition, the wet weight of the residual thrombus still present 2 h after injection was measured and the number of animals with a re-occlusion after reperfusion (=re-occlusionrate) was determined. With the aid of a semi-logarithmic regression analysis of the dose-effect (reperfusion rates) relationships, the effective dose for a 50% reperfusion rate (=ED50) was determined for each substance. The statistical comparison of the weights of the residual thrombi was carried out using the Wilcoxon-Mann-Whitney Test for unconnected random samples.

coagulation system [4] = assay: Haemostasis parameters in the rabbit jugular vein model; assay type: in vivo; conditions: 30 min after end of infusion, mean ± SEM
Description: as §1, §2
and haemostasis parameters (30 min after the end of the infusion) of
Mean ± SEM; kU = 1000 IU; HaemostasisParameter (% with reference to […]

jugular vein thrombosis = assay: Thrombolysis in the rabbit jugular vein model; assay type: in vivo; conditions: 4 h infusion, mean ± SEM
Description: as §1

[5] = Pharmacokinetics in the dog (t-PA activity in plasma); assay type: in vivo; conditions: 200000 IU/kg, i.v. bolus, mean ± standard deviation
Description: as §3
The plasma concentration of the t-PA activity was measured with a spectrophotometric test according to Verheijen et al., (Thromb. Haemost. 48, 266, 1982) modified according to Lill (Z. gesamte Inn. Med. 42, 478, 1987). A calculation programme for non-linear regression modified according to H. Y. Huang (Aero-Astronautics-Report 64, Rice University, USA, 1-30, 1969) was used to calculate the pharmacokinetic parameters. The parameters were calculated individually using a bi-exponential pharmacokinetic model after subtraction of the endogenous basal level of t-PA activity from the subsequent measured values.

coagulation system [6] = assay: Coagulation parameters and number of thrombocytes in the dog; assay type: in vivo; conditions: for Fibrinogen (% of initial value) / Number of platelets (% of initial value) / Plasminogen (% of initial value) / α2-Antiplasmin (% of initial value): 2 h after i.v. bolus, mean ± SEM
Description: as §3

bleeding time = assay: Simplate bleeding time in the dog; assay type: in vivo; conditions: i.v. bolus
Description: as §3

plasminogen = conditions: background; cited from earlier work
[7] = background; cited from earlier work
[8] = background; cited from earlier work; remark: listed apart in the source

Actilyse®: eukaryotic t-PA (Alteplase, Actilyse®, Dr. Karl Thomae GmbH, Biberach, FRG)
Plasma t-PA activity ([1]; 400 kU/kg): 47 ± 9 IU/ml
Plasma t-PA activity ([1]; 800 kU/kg): 107 ± 27 IU/ml
Cinf (plasma concentration of t-PA activity at end of infusion) [2]: 326,6 IU/ml
Cltot (total plasma clearance) [2]: 22.2 mL/min/kg
Vc (volume of distribution of the central compartment) [2]: 73.7 mL/kg
t1/2α [2]: 2,1 min
t1/2β [2]: 10,9 min
Cltot (total plasma clearance) ([2]; listed as Actilyse ®): 22,2 ml/min/kg
Vc (volume of distribution of the central compartment) ([2]; listed as Actilyse ®): 73,7 ml/kg
Re-occlusion rate ([3]; 1 130 000 IU/kg, i.v. bolus): 4/4
Reperfusion rate ([3]; 1 130 000 IU/kg, i.v. bolus): 4/6
Wet weight of the residual thrombus ([3]; 1 130 000 IU/kg, i.v. bolus): 4,4 ± 0,5 mg
Reperfusion time ([3]; 1 130 000 IU/kg, i.v. bolus): 14 ± 3 min
Re-occlusion rate ([3]; 1 600 000 IU/kg, i.v. bolus): 4/6
Reperfusion rate ([3]; 1 600 000 IU/kg, i.v. bolus): 6/6
Wet weight of the residual thrombus ([3]; 1 600 000 IU/kg, i.v. bolus): 2,2 ± 0,7 mg
Reperfusion time ([3]; 1 600 000 IU/kg, i.v. bolus): 28 ± 11 min
Reperfusion rate ([3]; 200 000 IU/kg, i.v. bolus): 0/6
Wet weight of the residual thrombus ([3]; 200 000 IU/kg, i.v. bolus): 8,8 ± 1,3 mg
Re-occlusion rate ([3]; 800 000 IU/kg, i.v. bolus): 1/2
Reperfusion rate ([3]; 800 000 IU/kg, i.v. bolus): 2/6
Wet weight of the residual thrombus ([3]; 800 000 IU/kg, i.v. bolus): 5,5 ± 0,4 mg
Reperfusion time ([3]; 800 000 IU/kg, i.v. bolus): 35 ± 38 min
Reperfusion rate ([3]; 1,600 kU/kg body weight, i.v.): 100%
re-occlusion after reperfusion ([3]; i.v. bolus): Most of the dogs treated with K2P or Actilyse® re-occluded after the reperfusion
reperfusion time, average over all animals ([3]; i.v. bolus, all doses): 24.2 ± 6.2 min
weight of the residual thrombus compared to placebo ([3]; increasing doses, i.v. bolus): statistically significant reduction in the weight of the residual thrombus
Fibrinogen (% of base line) (coagulation system [4]; 400 kU/kg): 90 ± 3%
Plasminogen (% of base line) (coagulation system [4]; 400 kU/kg): 88 ± 4%
α2-Antiplasmin (% of base line) (coagulation system [4]; 400 kU/kg): 87 ± 3%
Fibrinogen (% of base line) (coagulation system [4]; 800 kU/kg): 77 ± 6%
Plasminogen (% of base line) (coagulation system [4]; 800 kU/kg): 77 ± 4%
α2-Antiplasmin (% of base line) (coagulation system [4]; 800 kU/kg): 74 ± 6%
Thrombolysis (jugular vein thrombosis; 400 kU/kg): 46 ± 3%
Thrombolysis (jugular vein thrombosis; 800 kU/kg): 64 ± 6%
Cinj. [5]: 1674 IU/ml
T1/2α [5]: 1.6 ± 0.2 min
T1/2β [5]: 14,6 min
Vc (volume of distribution of the central compartment) [5]: 106,1 ml/kg
T1/2α ([5]; listed as Actilyse ®): 1,6 min
Fibrinogen (% of initial value) (coagulation system [6]; 1 130 000 IU/kg): 16 ± 13%
Number of platelets (% of initial value) (coagulation system [6]; 1 130 000 IU/kg): 110 ± 10%
Plasminogen (% of initial value) (coagulation system [6]; 1 130 000 IU/kg): 59 ± 6%
α2-Antiplasmin (% of initial value) (coagulation system [6]; 1 130 000 IU/kg): 45 ± 6%
Fibrinogen (% of initial value) (coagulation system [6]; 1 600 000 IU/kg): 3±0%
Number of platelets (% of initial value) (coagulation system [6]; 1 600 000 IU/kg): 119 ± 10%
Plasminogen (% of initial value) (coagulation system [6]; 1 600 000 IU/kg): 46 ± 2%
α2-Antiplasmin (% of initial value) (coagulation system [6]; 1 600 000 IU/kg): 19 ± 11%
Fibrinogen (% of initial value) (coagulation system [6]; 1 600 000 IU/kg, listed as Actilyse ®): 3 ± 0%
Fibrinogen (% of initial value) (coagulation system [6]; 200 000 IU/kg): 97 ± 3%
Number of platelets (% of initial value) (coagulation system [6]; 200 000 IU/kg): 109 ± 4%
Plasminogen (% of initial value) (coagulation system [6]; 200 000 IU/kg): 90 ± 3%
α2-Antiplasmin (% of initial value) (coagulation system [6]; 200 000 IU/kg): 86 ± 4%
Fibrinogen (% of initial value) (coagulation system [6]; 800 000 IU/kg): 86 ± 4%
Number of platelets (% of initial value) (coagulation system [6]; 800 000 IU/kg): 104 ± 6%
Plasminogen (% of initial value) (coagulation system [6]; 800 000 IU/kg): 87 ± 3%
α2-Antiplasmin (% of initial value) (coagulation system [6]; 800 000 IU/kg): 64 ± 5%
concentration of platelets (coagulation system [6]; 2 h after injection, dog): virtually uninfluenced
lowering of residual contents of plasminogen and α2-antiplasmin (coagulation system [6]; 2 h after injection, dog): more pronounced with Actilyse® than with K2P
residual content of fibrinogen at the ED50 for thrombolytic effect (coagulation system [6]; equipotent doses, semi-logarithmic regression, dog): 38.6%
bleeding time compared with control value before injection (bleeding time): increased the bleeding time which was statistically significant at doses of 1130 and 1600 kU/kg body weight

natural t-PA: tissue-type plasminogen activator t-PA
increase of enzymatic activity in presence of fibrin or fibrinogen cleavage products (plasminogen): more than ten-fold
clearance rate [7]: rapid decrease in its plasma concentration (clearance)
side effects at high therapeutic doses [8]: side effects such as for example bleeding
